From patent US20090149339A1 (published 2009)
Ends that are not written are not given here. * marks the point of attachment. Biotin = O=C1N[C@H]2[C@H](CS[C@H]2CCCCC(=O)*)N1

Key:
[1] = target: T1, GST-CASK PDZ domain fusion protein (CASK AA495-584; PDZ domain 1 of 1) (mouse, UniProt P08515 1-218 = GST); assay: G assay
T1 construct: also called mCASK

[2] = target: T2, GST-NeDLG PDZ domain fusion protein (presynaptic protein sao102, neuroendocrine-dlg; PDZ domains 1-2 of 3) (UniProt P08515 1-218 = GST); assay: G assay
T2 construct: also called NeDLG1

[3] = target: GST-LIM PDZ domain fusion protein (Human LIM protein AA29-112; PDZ domain 1 of 1) (human, UniProt P08515 1-218 = GST); assay: A/G assays
[4] = target: GST-PTN-4 PDZ domain fusion protein (protein-tyrosine phosphatase meg1 AA774-862; PDZ domain 1 of 1) (UniProt P08515 1-218 = GST); assay: A/G assays
[5] = target: T3, GST-TAX2 PDZ domain fusion protein (human tax interaction protein 2 AA54-140; PDZ domain 1 of 1) (human, UniProt P08515 1-218 = GST); assay: A/G assays
T3 construct: also called TX 2

[6] = target: T4, GST-MPP2 PDZ domain fusion protein (maguk p55 subfamily member 2 (DLG2) AA185-273; PDZ domain 1 of 1) (UniProt P08515 1-218 = GST); assay: A/G assays
T4 construct: also called MMP2

[7] = target: T5, GST-KIAA0303 PDZ domain fusion protein (KIAA0303 AA652-742; PDZ domain 1 of 1) (UniProt P08515 1-218 = GST); assay: A/G assays
T5 construct: also called K303

[8] = target: T6, GST-KIAA0316 PDZ domain fusion protein (KIAA0316 AA197-284; PDZ domain 1 of 1) (UniProt P08515 1-218 = GST); assay: A/G assays
T6 construct: also called K316

[9] = target: T7, GST-CBP PDZ domain fusion protein (Cytohesin binding protein HE AA85-175; PDZ domain 1 of 1) (UniProt P08515 1-218 = GST); assay: A/G assays
T7 construct: also called Prot

[10] = target: GST-LIMK2 PDZ domain fusion protein (human LIM domain kinase 2 AA185-275; PDZ domain 1 of 1) (human, UniProt P08515 1-218 = GST); assay: A/G assays
[11] = target: T8, GST-TAX33 PDZ domain fusion protein (tax interaction protein 33 AA73-162; PDZ domain 1 of 1) (UniProt P08515 1-218 = GST); assay: A/G assays
T8 construct: also called TX33

[12] = target: GST-NOS1 PDZ domain fusion protein (human neuronal nitric oxide synthase; PDZ domain 1 of 1) (human, UniProt P08515 1-218 = GST); assay: A/G assays
[13] = target: T9, GST-KIAA0559 PDZ domain fusion protein (KIAA0559 AA766-870; PDZ1 of 1) (UniProt P08515 1-218 = GST); assay: A/G assays
T9 construct: also called K559

[14] = target: GST-MINT3 PDZ domain fusion protein (human MINT3 AA11-52; PDZ domain 1 of 1) (human, UniProt P08515 1-218 = GST); assay: A/G assays
[15] = target: T10, GST-prIL16 PDZ domain fusion protein (putative interleukin 16 precursor AA170-383; PDZ domains 1-2 of 2) (UniProt P08515 1-218 = GST); assay: A assay
[16] = target: T11, GST-TAX43 PDZ domain fusion protein (human tax interaction protein 43 AA15-85; PDZ domain 1 of 1) (human, UniProt P08515 1-218 = GST); assay: A assay
T11 construct: also called TX 43

[17] = target: T12, GST-41.8 kD PDZ domain fusion protein (hypothetical 41.8 kD protein AA4-85; PDZ domain 1 of 1) (UniProt P08515 1-218 = GST); assay: A assay
T12 construct: also called hypoth

[18] = target: T13, GST-MPP1 PDZ domain fusion protein (55 Kd erythrocyte membrane protein AA101-186; PDZ domain 1 of 1) (UniProt P08515 1-218 = GST); assay: A assay
[19] = target: T14, GST-TIAM1 PDZ domain fusion protein (T-lymphoma invasion and metastasis inducing protein 1 AA1001-1088); PDZ 1 … (UniProt P08515 1-218 = GST); assay: A assay
[20] = target: T15, GST-AF6 PDZ domain fusion protein (af-6 protein AA985-1077; PDZ domain 1 of 1) (UniProt P08515 1-218 = GST); assay: A assay
[21] = target: T16, GST-RGS12 PDZ domain fusion protein (human regulator of G-protein signalling 12 AA35-103; PDZ domain 1 of 1) (human, UniProt P08515 1-218 = GST); assay: A assay
T16 construct: also called RSG12

[22] = target: T17, GST-TAX40 PDZ domain fusion protein (human tax interaction protein 40 AA35-137; PDZ domain 1 of 1) (human, UniProt P08515 1-218 = GST); assay: A assay
T17 construct: also called TX 40

[23] = target: T18, GST-DVL1 PDZ domain fusion protein (human dishevelled segment polarity protein homolog AA248-340); PDZ domain … (human, UniProt P08515 1-218 = GST); assay: A assay
[24] = target: T19, GST-SYN1a PDZ domain fusion protein (alpha1-syntrophin AA96-189; PDZ domain 1 of 1) (UniProt P08515 1-218 = GST); assay: A assay
T19 construct: also called SYN 1 alpha; SYNTR 1 alpha

[25] = target: T20, GST-PSD95 PDZ domain fusion protein (human post-synaptic density protein 95 AA387-724; PDZ domains 1-3 of 3) (human, UniProt P08515 1-218 = GST); assay: A and G assays
[26] = target: T20, GST-PSD95 PDZ domain fusion protein …; assay: G assay, peptide titrated on immobilized GST-PDZ, saturation fit (apparent affinity)
Text: (§1) FIGS. 2A and 2B show the Apparent Affinity Determination for PDZ-Ligand Interactions. […] The binding to GST alone (<0.2 OD units) was subtracted from the binding to the fusion proteins to obtain the signal at each peptide concentration.

[27] = target: T2, GST-NeDLG PDZ domain fusion protein …; assay: as above
Text: as §1

[28] = target: T10, GST-prIL16 PDZ domain fusion protein …; assay: A/G assays
[29] = target: T11, GST-TAX43 PDZ domain fusion protein …; assay: A/G assays
[30] = target: T13, GST-MPP1 PDZ domain fusion protein (55 …); assay: A/G assays
[31] = target: T1, GST-CASK PDZ domain fusion protein …; assay: A/G assays
[32] = target: T14, GST-TIAM1 PDZ domain fusion protein …; assay: A/G assays
[33] = target: T15, GST-AF6 PDZ domain fusion protein (af-6 …); assay: A/G assays
[34] = target: T16, GST-RGS12 PDZ domain fusion protein …; assay: A/G assays
[35] = target: T17, GST-TAX40 PDZ domain fusion protein …; assay: A/G assays
[36] = target: T18, GST-DVL1 PDZ domain fusion protein …; assay: A/G assays
[37] = target: T19, GST-SYN1a PDZ domain fusion protein …; assay: A/G assays
[38] = target: T10, GST-prIL16 PDZ domain fusion protein …; assay: G assay
[39] = target: T13, GST-MPP1 PDZ domain fusion protein (55 …); assay: G assay
[40] = target: T12, GST-41.8 kD PDZ domain fusion protein …; assay: A/G assays
[41] = target: T20, GST-PSD95 PDZ domain fusion protein …; assay: A/G assays
[42] = target: T2, GST-NeDLG PDZ domain fusion protein …; assay: A/G assays

T2 sequence (P08515 1-218, tags or fused parts left off): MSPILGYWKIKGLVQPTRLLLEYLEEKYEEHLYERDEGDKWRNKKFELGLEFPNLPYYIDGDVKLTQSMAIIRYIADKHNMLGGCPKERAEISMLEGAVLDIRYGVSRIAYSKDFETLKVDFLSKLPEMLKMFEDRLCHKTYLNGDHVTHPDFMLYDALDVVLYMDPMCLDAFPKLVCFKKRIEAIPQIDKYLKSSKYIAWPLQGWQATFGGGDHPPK
T18 sequence (P08515 1-218, tags or fused parts left off): as above
T20 sequence (P08515 1-218, tags or fused parts left off): as above
T1 sequence (P08515 1-218, tags or fused parts left off): as above
T9 sequence (P08515 1-218, tags or fused parts left off): as above
T13 sequence (P08515 1-218, tags or fused parts left off): as above
T3 sequence (P08515 1-218, tags or fused parts left off): as above
Sequence of GST-PTN-4 PDZ domain fusion protein (protein-tyrosine phosphatase meg1 AA774-862; PDZ domain 1 of 1) (P08515 1-218, tags or fused parts left off): as above
T7 sequence (P08515 1-218, tags or fused parts left off): as above
T15 sequence (P08515 1-218, tags or fused parts left off): as above
T8 sequence (P08515 1-218, tags or fused parts left off): as above
T5 sequence (P08515 1-218, tags or fused parts left off): as above
T16 sequence (P08515 1-218, tags or fused parts left off): as above
T17 sequence (P08515 1-218, tags or fused parts left off): as above
T6 sequence (P08515 1-218, tags or fused parts left off): as above
Sequence of GST-LIMK2 PDZ domain fusion protein (human LIM domain kinase 2 AA185-275; PDZ domain 1 of 1) (P08515 1-218, tags or fused parts left off): as above
T19 sequence (P08515 1-218, tags or fused parts left off): as above
T11 sequence (P08515 1-218, tags or fused parts left off): as above
T10 sequence (P08515 1-218, tags or fused parts left off): as above
Sequence of GST-NOS1 PDZ domain fusion protein (human neuronal nitric oxide synthase; PDZ domain 1 of 1) (P08515 1-218, tags or fused parts left off): as above
Sequence of GST-LIM PDZ domain fusion protein (Human LIM protein AA29-112; PDZ domain 1 of 1) (P08515 1-218, tags or fused parts left off): as above

| Binder | binding result [3] | binding result [4] | binding result [5] | binding result [6] | binding result [7] | binding result [8] | binding result [9] | binding result [10] | binding result [11] | binding result [12] | binding result [13] | binding result [14] | binding result [29] | binding result [31] | binding result [32] | binding result [33] | binding result [34] | binding result [35] | binding result [36] | binding result [37] | further results |
| --- | --- | --- | --- | --- | --- | --- | --- | --- | --- | --- | --- | --- | --- | --- | --- | --- | --- | --- | --- | --- | --- |
| Biotin-SSAKSSNKNKKNKDKEYYV [Neurexin C-terminal PL peptide AA38L, biotinylated] | no binding | no binding | no binding | no binding | no binding | no binding | no binding | no binding | no binding | no binding | no binding | no binding |  |  |  |  |  |  |  |  | binding result [1]: binds; binding result [2]: binds; binding result [15]: binds; binding result [16]: binds; binding result [17]: binds; binding result [18]: binds; binding result [19]: binds; binding result [20]: binds; binding result [21]: binds; binding result [22]: binds; binding result [23]: binds; binding result [24]: binds; binding result [25]: binds |
| Biotin-KDITSDSENSNFRNEIQSLV [CD95 (Apo-1/Fas) C-terminal PL peptide AA13L, biotinylated] | no binding | no binding | no binding | no binding | no binding | no binding | no binding | no binding | no binding | no binding | no binding | no binding | no binding | no binding | no binding | no binding | no binding | no binding | no binding | no binding | Kd [26]: 85 µM; Kd [27]: 54 µM; binding result [28]: no binding; binding result [30]: no binding |
| Biotin-QFMTADETRNLQNVDMKIGV [CD44 (long form) C-terminal PL peptide AA9L, biotinylated] | no binding | no binding | no binding | no binding | no binding | no binding | no binding | no binding | no binding | no binding | no binding | no binding | no binding | no binding | no binding | no binding | no binding | no binding | no binding | no binding | binding result [38]: binds; binding result [39]: binds; binding result [40]: no binding; binding result [41]: no binding; binding result [42]: no binding |
